# In article doi:10.1101/2020.07.29.226720v1 (biorxiv, 2020):
# T1: AthPEPCK1 WT (Arabidopsis thaliana, UniProt Q9T074)
# T1 sequence (Q9T074 2-671): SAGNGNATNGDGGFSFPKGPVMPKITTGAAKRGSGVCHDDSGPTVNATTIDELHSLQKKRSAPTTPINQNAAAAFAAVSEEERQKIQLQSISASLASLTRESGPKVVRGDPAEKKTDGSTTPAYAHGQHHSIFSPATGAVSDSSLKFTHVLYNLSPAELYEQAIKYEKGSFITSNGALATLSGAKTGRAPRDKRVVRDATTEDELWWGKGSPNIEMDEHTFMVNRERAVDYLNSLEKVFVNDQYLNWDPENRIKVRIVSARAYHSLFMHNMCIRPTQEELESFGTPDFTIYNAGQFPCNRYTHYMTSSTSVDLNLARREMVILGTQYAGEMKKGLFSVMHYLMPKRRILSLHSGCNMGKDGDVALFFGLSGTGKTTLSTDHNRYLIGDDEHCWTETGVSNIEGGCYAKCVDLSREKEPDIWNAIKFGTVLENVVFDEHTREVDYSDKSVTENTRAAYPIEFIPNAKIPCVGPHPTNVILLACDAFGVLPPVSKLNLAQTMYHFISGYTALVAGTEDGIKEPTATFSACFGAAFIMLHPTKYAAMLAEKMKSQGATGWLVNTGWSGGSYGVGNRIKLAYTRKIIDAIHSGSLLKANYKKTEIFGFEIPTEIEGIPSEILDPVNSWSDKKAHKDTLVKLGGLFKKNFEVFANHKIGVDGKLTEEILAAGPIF
# T2: AthPEPCK1 Δ101 (Arabidopsis thaliana, UniProt Q9T074)
# T2 sequence (Q9T074 102-671): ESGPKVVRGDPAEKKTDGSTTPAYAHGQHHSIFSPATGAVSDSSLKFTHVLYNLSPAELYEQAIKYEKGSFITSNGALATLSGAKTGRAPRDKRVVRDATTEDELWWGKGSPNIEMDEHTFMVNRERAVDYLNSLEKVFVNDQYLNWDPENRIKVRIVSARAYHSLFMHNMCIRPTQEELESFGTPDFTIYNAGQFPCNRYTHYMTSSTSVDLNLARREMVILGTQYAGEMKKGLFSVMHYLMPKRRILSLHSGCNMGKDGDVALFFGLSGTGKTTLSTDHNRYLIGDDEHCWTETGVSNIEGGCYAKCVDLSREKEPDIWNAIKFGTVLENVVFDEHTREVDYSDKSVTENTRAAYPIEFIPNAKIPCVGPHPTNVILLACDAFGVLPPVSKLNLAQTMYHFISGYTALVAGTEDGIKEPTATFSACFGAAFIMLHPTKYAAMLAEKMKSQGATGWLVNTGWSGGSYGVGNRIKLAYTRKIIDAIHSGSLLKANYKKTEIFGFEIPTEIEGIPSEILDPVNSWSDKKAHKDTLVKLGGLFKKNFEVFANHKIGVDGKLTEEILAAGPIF
# How the values were obtained:
# [1] = target: T1, AthPEPCK1 WT; assay: activity with effector, carboxylation direction; assay type: biochemical; details: allosteric activator; 10 mM PEP, 0.13 mM ADP
# [2] = target: T2, AthPEPCK1 Δ101; assay: activity with effector, decarboxylation direction; assay type: biochemical; details: allosteric activator; 0.5 mM OAA, 0.3 mM ATP
# [3] = substrate: Nc1ncnc2c1ncn2[C@@H]1O[C@H](COP(=O)(O)OP(=O)(O)OP(=O)(O)O)[C@@H](O)[C@H]1O; assay: purified protein; details: 0.5 mM OAA
# [4] = substrate: Nc1ncnc2c1ncn2[C@@H]1O[C@H](COP(=O)(O)OP(=O)(O)O)[C@@H](O)[C@H]1O; assay: steady-state kinetics, carboxylation direction; assay type: biochemical, Arabidopsis thaliana
molecule,measurement,setting,value
O=C(O)C[C@H](O)C(=O)O [malate],fold activation,[1],2 fold
O=P(O)(O)OC[C@H]1OC(O)[C@H](O)[C@@H](O)[C@@H]1O (stereo partly shown) [Glc6P],fold activation,[2],2 fold
AthPEPCK1 Δ101 (Arabidopsis thaliana) (protein) ESGPKVVRGDPAEKKTDGSTTPAYAHGQHHSIFSPATGAVSDSSLKFTHVLYNLSPAELYEQAIKYEKGSFITSNGALATLSGAKTGRAPRDKRVVRDATTEDELWWGKGSPNIEMDEHTFMVNRERAVDYLNSLEKVFVNDQYLNWDPENRIKVRIVSARAYHSLFMHNMCIRPTQEELESFGTPDFTIYNAGQFPCNRYTHYMTSSTSVDLNLARREMVILGTQYAGEMKKGLFSVMHYLMPKRRILSLHSGCNMGKDGDVALFFGLSGTGKTTLSTDHNRYLIGDDEHCWTETGVSNIEGGCYAKCVDLSREKEPDIWNAIKFGTVLENVVFDEHTREVDYSDKSVTENTRAAYPIEFIPNAKIPCVGPHPTNVILLACDAFGVLPPVSKLNLAQTMYHFISGYTALVAGTEDGIKEPTATFSACFGAAFIMLHPTKYAAMLAEKMKSQGATGWLVNTGWSGGSYGVGNRIKLAYTRKIIDAIHSGSLLKANYKKTEIFGFEIPTEIEGIPSEILDPVNSWSDKKAHKDTLVKLGGLFKKNFEVFANHKIGVDGKLTEEILAAGPIF,Km,[3],80 ± 10 µM
same,kcat,[3],3.9 ± 0.2 s⁻¹
same,Km,[4]; 15 mM PEP,57 ± 6 µM
same,kcat,[4]; 15 mM PEP,3.01 ± 0.08 s⁻¹
AthPEPCK1 Δ19 (Arabidopsis thaliana) (protein) GPVMPKITTGAAKRGSGVCHDDSGPTVNATTIDELHSLQKKRSAPTTPINQNAAAAFAAVSEEERQKIQLQSISASLASLTRESGPKVVRGDPAEKKTDGSTTPAYAHGQHHSIFSPATGAVSDSSLKFTHVLYNLSPAELYEQAIKYEKGSFITSNGALATLSGAKTGRAPRDKRVVRDATTEDELWWGKGSPNIEMDEHTFMVNRERAVDYLNSLEKVFVNDQYLNWDPENRIKVRIVSARAYHSLFMHNMCIRPTQEELESFGTPDFTIYNAGQFPCNRYTHYMTSSTSVDLNLARREMVILGTQYAGEMKKGLFSVMHYLMPKRRILSLHSGCNMGKDGDVALFFGLSGTGKTTLSTDHNRYLIGDDEHCWTETGVSNIEGGCYAKCVDLSREKEPDIWNAIKFGTVLENVVFDEHTREVDYSDKSVTENTRAAYPIEFIPNAKIPCVGPHPTNVILLACDAFGVLPPVSKLNLAQTMYHFISGYTALVAGTEDGIKEPTATFSACFGAAFIMLHPTKYAAMLAEKMKSQGATGWLVNTGWSGGSYGVGNRIKLAYTRKIIDAIHSGSLLKANYKKTEIFGFEIPTEIEGIPSEILDPVNSWSDKKAHKDTLVKLGGLFKKNFEVFANHKIGVDGKLTEEILAAGPIF,Km,[3],29 ± 6 µM
same,kcat,[3],3.38 ± 0.06 s⁻¹
same,Km,[4]; 5 mM PEP,40 ± 1 µM
same,kcat,[4]; 5 mM PEP,2.64 ± 0.06 s⁻¹
